Measurements published in a protein production outcome set (Wang et al. 2014).

Experiment: label from the status in PepcDB records
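Further: failed if final PepcDB status was selected cloned or expressed and not failed if soluble or beyond.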

With “MSINISELLQPITEQSPCGEDYSFSNEFHLIKKARTQDDVLLDQGDWVTELKQADWETVTSTSSNLLKTKTKDIRLLTWLSEGWANLYGFEGIYQGIELSHRLLDQFWNDIHPVVEDDDLDQRIALLQGLINQLPLLIKKTPLINTSPYYHLLNYENFLHHQNIRRKQSDEYEQLDGPSEIELFEQALFNTSKSFQYQNYQMFKHVVSQWQQLKDVLDRLMGVDAPSFAAIDSSLQDIDVNLRKIYKAEAFDTNPVATSSATASSHASETLSTEPMPTSNVNVNQPSFQPQTQNHIQNREQAIRVLQDISDYFQANEPHSPVSYMLQKTIKWSQMPLHEWLAQVIKDEHPLQLVQEALGVQPKNEYE” the protein production was “failed”.

In the case of “MVKVELVYIANSKNCLHYKMDLKQGATVEEALIESNIYSTCPETRELPVGVYGKRVSVDQVLKEGDRIEIYRPLILDPKEKRRKLAQFKK”, the protein production is reported as “failed”.

With “PCHHRITLDEFYQLFTNNKNIHLIDVRSTKEHQIQNIGGIVLPLDELPQRLHELNPNRLIILYCQSGTRSKMALDILLKAGFASVKYIENGLKGVTDNYNKDMPQ” the protein production was “failed”.

For “MRKSKLTFIATFLILLFLSMPYKAHAASQTPITRADAEQRALTMINLNWTYSKSKNGVLPSAYSGSITAPSQFRGIENVVATGIPYCWGGFDGLNSSSYGESWTNFTDAVNKGAFVGNVKSSSYGHITGTAGLDCSGFVQATFNIKDYKLSTSTIFNQYFTKIDIKDIKHMDILNLPGNHVVIFDKWGTRNGVNGAYTYEATPDTTYGGIQGTKQYFMSMNTVSQYIPGRYVNIKEVAYVQVINASSLNIRTGPSTSYPIIGTISQNQIAEVTGYSSDGTWYKIKINGIEGYASSTYLTYVNNLEHHHHHH”, the protein production was “failed”.

With “EQVFAAECILSKRLRKGKLEYLVKWRGWSSKHNSWEPEENILDPRLLLAFQKKEHEKEVQN” the protein production was “not failed”.

In the case of “MKKTTLFVLGLLFNSFLNAVDGISKTDLSSLNLAEDSAPLNHPNAQKLSLKNAWTRVLSNHEGLHAQEYAIKRASKMKLAAKLSFLPQIDLSAFYVYLSNPIKMDFASQKQPGVQKATNQIHQGIQNIQQNIPSQVLTPQIQAGMQGVMQGFGALSSTLEAPLLFSKQNVVIGALSIIYPLYMGGARFTMVRIADLMQKDANEVYRLKKLSTFQELVSVYYGMVLNAEVAETLEEVEKGHYKHFQNALKMQKVGQIARVETLGAQVAYDKAHIASVKAKDVLEVSQLSFNSILSSKDDLVPSSKLEIRTEKNLPDLSFFVSSTLNSYPVLKTLENQIQISKENTKLQIAKFLPQVSFFGSYIMKQNNSVFEDMIPSWFVGVAGRMPILSPTGRIQKYQASKLAELQVSSEQIQAKKNMELLVNKTYKETLSYLKEYKSLLSSVELAKENLKLQEQAFLQGLSTNAQVIDARNTLSSIVVEQKSVAYKYIVSLANLMALSDHIDLFYEFVY”, the protein production is reported as “failed”.

For “MGHHHHHHSHMSRVPPTVTNAVSWRSEGIKYKKNEVFIDVIESVNLLVNANGSVLLSEIVGTIKLKVFLSGMPELRLGLNDRVLFELTGRSKNKSVELEDVKFHQCVRLSRFDNDRTISFIPPDGDFELMSYRLSTQVKPLIWIESVIEKFSHSRVEIMVKAKGQFKKQSVANGVEISVPVPSDADSPRFKTSVGSAKYVPERNVVIWSIKSFPGGKEYLMRAHFGLPSVEKEEVEGRPPIGVKFEIPYFTVSGIQVRYMKIIEKSGYQALPWVRYITQSGDYQLRTS”, the protein production was “failed”.

For “MSGVILGRYWGGLSQLIYVIIGAAGVPWFADMSGGPEVLLGATGGYLLGFILAALLLGHFVDRHIRARKFTPMLGLMTIANFGLIYIPGLVVLGLWSLKTQGTLPGPWELLVMGLLPFIPGDILKITGAAALTRAITPKEPYGEEIDIQKAEGWRVP”, the protein production was “failed”.

For “MTNGKNPKEYSRQYVDEIAERADVVGYAPAIEYSFDRYTNNPVHEKIATIHDGEKLGDDAHVEVVVVDFFKKSDKGDKCYATKRTYAVIPDSDGDGTDALVYSGSLKSVSDIEEGYVTETDFTSKTVTYAKGDYAATELEHHHHHH”, the protein production was “failed”.

For “MTEEFNESMINDIKEGDKVTGEVQQVEDKQVVVHINGGKFNGIIPISQLSTHHIENPSEVVKVGDEVEAYVTKIEFDEENDTGAYILSKRQLETEKSYEYLQEKLDNDEVIEAEVTEVVKGGLVVDVGQRGFVPASLISTDFIEDFSVFDGQTIRIKVEELDPENNRVILSRKAVEQLENDAKKASILDSLNEGDVIDGKVARLTNFGAFINIGGVDGLVHVSELSHGTCSNTRRSCVSRLEHHHHHH”, the protein production was “not failed”.

In the case of “MSLDTVDKLVVFLAKRDGIDKLVKTFQYVAKLACWHVEATRPEAADRFKKWEVASGLSRKAFRTGRSLTGFNALRRNPGATPMIRFLAVLANSGEMVYFFFDHFLWLSRIGSIDAKLAKKMSFISAFGESFGYTFFIIIDCIFIKQRLKSLKKLQHSTDEPKEEIGAKISEIRGDIVMRLMGISANVADLLIALAEIHPNPFCNHTITLGISGLVSAWAGWYRNWPS”, the protein production is reported as “failed”.

With “MNKPYFIAFLLSLALWTVIPSVFAGDVVLKVFEGKPRINSPHITGNYPSTPFIFYIPTSGQRPMQWSAEKLPEGLELDSKTGIISGVMTSKGDYTVTLKAENALGVSVKQLVIRIGDELLLTPPMGWNSWNTFGQHLTEELVLQTADAMITNGMRDLGYSYINIDDFWQLPERGADGHLQIDKTKFPRGIKYVADYLHERGFKLGIYSDAAEKTCGGVCGSYGYEETDAKDFASWGVDLLKYDYCNAPVDRVEAMERYAKMGRALRATNRSIVYSVCEWGQREPWKWAKQVGGHLWRVSGDIGDIWYRDGNRVGGLHGILNILEINAPLSEYAGPSGWNDPDMLVVGIDGKSMSIGYESEGCTQEQYKSHFSLWCMMASPLLSGNDVRNMNDSTLKILLDPDLIAINQDVLGRQAERSIRSDHYDIWVKPLADGCKAVACFNRASSPQTVILNENTIADLSFEQIYCLDSHLTKSGSDSKELIVKLAPYQCKVYILGKTDLEHHHHHH” the protein production was “failed”.

With “MSSKRPPAPPPPIPGFKYISLLGSGGFSDVYLYEQDRPRRKVAVKVLLSDLKTEGARRRFESEANLMAQLSSHPYIVTIFEAEITETGHSYLAMEYCSRPSLDVRYRRQRFSVDEVLAVGIQVASAVETAHRAGIVHRDIKPANILVTDYNRPALTDFGISGTIGADTEDDAGMSIPWSPPEQFRGGAVDGVPVDIWALGATLYTLLAGRSPFVLPGQDNSQRELISRITNSPLPRLGRADVPESLELVLATSMAKSPESRYSSAHAFALALQRIQAELNLSVTPFEVLEEPGHGDDQHPDDNFEETRVRSIASIDPDASGTATTGSAPTFPARTFPTTATGASGQPTQPQSLPTSRPQPTNPPQTVQSHAGSSAPPQFHAPAPGSYTAPGSYTAPGTYTAPGTYRASGSHNATAEPDTAESTVLRGWQPSRPQDDLGATVSRSNSPAGASPATREDARPADHSKRNLWLAATGAAVLVVAIVVGVVLGAQAQPKVVPTEAASKPPADALGDGSVPDVEGLIGVKDPEKPDFADFRWTNPQPQSGDMYMWRYRTALIPEGDYEAVTEPHARPYFGGEKQLCIQVIIVRRDGTSSPGDTGSIACVDQ” the protein production was “failed”.

For “MNEVKESLRSIEQKYKLFQQQQFTFIAALEHCRENAHDKIRPISSIEQVQSYMEHYCNNSTHRRILIMFMDICSELSKLCQHFEALHSGTPVTNSLLEKCKTLVSQSNDLSSLRAKYPHEVVNHLSCDEARNHYGGVVSLIPIVLDFMKEWIAHSEKLPRKVLQHGTT”, the protein production was “failed”.

In the case of “MSKGKYIHFDTLVSAKTGDIVAIQDILNQFRGYIISRSLRTAYRSDGSLYQYIDTDVQHKMETDLIEAIYKFEIRLEHHHHHH”, the protein production is reported as “failed”.

For “MKHYSHGIDGLRSGLSPSAKPFAIGSSSSPAFSLKSEHEDSIWGDYTLDLSFLSSDDQRSGLDDDDSLSNLSRDVETNKEGLVLEEKIASSGKVLVNPNPSFSKLPEVLMKSSDVVGDAKLGLSCVSEKSSTESDLDESEEDSPCWKGMLSHKSLASGTKSMTSRRSTDDLSGFRKLNPLAPQFIPSSSKKKLETDGEKCEETSSSSLKKSLSSTFPSSSGEFDLTDPPLEDGRNDAAEKTSILTHNADEILGFVTSDSVSKTVSMLDSRNEFQPSKRLDPLAPVFVPSSAKLGPSVHEKLGDFVVNAYSTSALASSHVKSLDKGKVVTSSGEVGHSFKSQYGGHDFGSTSSYGPWIESEVGITEYAKLGSSNKSQGQRRLNPLARQFSLADAKQKPYGYGKNQAADDLSLVVNTSGLYIPARYREDHNVVDADLAQSSVNVERFLPNMSHGGSSLITPKADSNFGSTKWIAVEPNPTFSVKGNRDFKHHLPFHVVETAASSSTSDMKALPGPSPKMDVKKLLTTMHGLSELLTLAHGSESSDSPNAEELDLINSTVQNLNLYIQNNSQEHAGNQSVAQYNSYDLKLLPNKSKLSIRDHQFPTANNMTVDLDVKRKDKYSVVSRETVPGSRSYQYGATEDNGFGQVVPTNGYQQHQGVEQINQNALFYKSLWLKAEADRCLMVYETSLSNPYP”, the protein production was “failed”.

With “MQSSLSFSCGVKSTMAKSPVEVNLIPIEATPETFAEYGQVIEASRDGAGYGPNDAQLDLSKGIPRLYILRLKETPLGFFKITHHAKVTQCLGSIGGDIWYMGVAKPSLIEDDDDGRRVDTVKAKSGHLYIPPEVEEIRVFRFSGPKFVKLHRGTWHAGPLFSGSSIMDFYNLELSNTNVVDHTSHDFTKNNGVSFRFDT” the protein production was “failed”.

With “MTEEQVQHWFDMFGSLGYIAGFLLPFIEAFIPILPIIVFIIVNVNAFGWFIGTVLAWAGTVAGSYIVFLFFRRLNNTKYMKKVQQRTSVQRLIHFIDRRGVIPIFILMCFPFTPSALVNIVASMSHIKAHAYLTVLIISKFIMIGLVGWLGNDITTLFSNPTRLITIVVVIIIVWFVGRKIEKHFMSSSEE” the protein production was “failed”.

With “MIRNASIINVFRVSLALIVIVASASSLSAFWLLEKSEQDAELINVAGSHRMKAYKFALQLSSGKKVQASETAQEIDTLWEQPLLHRHFVKAGGSIQQLAKDARTEWQRVHSEIAEQDFARFSQQQSNAIDNYVNQLDTLVGQLQEHSERRMETVRSSLALASFFIVAIFFFLLTVLKRKINQPLRHLLAVSKRLGQGDFTAKSKIDNEDEIGQLSRTMNKMSETVSYFYGGLERRVEQQTQELSRKNKVLSFLYDTARSIIVHSYDYNNYQQVIEKLYEIGEVNDIELCLLTEEGNRPFLQLQPRPSSHEPCEAGDCATCLKAGPGASVIEDKLVYRFVLKREDQNYGVLIVRCEQGQPLATWQQQLMSSTADQLALSQSLKSEEEQVRRLALMHERTVIARELHDSLAQALSYLKIQVTRLHKGIEKNDRATIDDVSNELREGLNSAYRQLRELLTTFRLKVDGSGLYSALQTTVKQLTEQSNMVVHLDYRLNNIPLVPHEEIHLLQIIREASQNAVNHSQGSEVHISLSQPSGQDVELKITDDGIGLPENAEKVNHYGLAIMQERSRNLGGEIKISRLESGGTEVCFTFTPDYLLQ” the protein production was “failed”.

For “HHIAYTEWGIFEPELPTVICVHGYTRNSRDFDELANYLSSKGRHVFCPDIAGRGDSSWFKNPRYYNFTQYVKDMTVLMARTNAHQIDWIGTSMGGIIGMILAAMPNSPINKLVLNDIGPQIPIHGLRRIAKYAGKAPDFKSLEEAKQHFKASYADFGITNEKQWDIFTKNSVEQRGPNLYVTKMDPAIKKSKSILQIISEFFRHPHKALEGIFYDINLWSIWKQIKCPVIVIHGVNSDILTSEIITQMKKTHALTEVYEVENAGHAPALLDLTVHQRIEDWLATH”, the protein production was “failed”.

For “MAKWRVAAILSGALLAADARAEALRMLLTQIPGIIEQAPDGASMRGVGIDLMKEVGRRAGVELRFEAYPQARARLLVERQRDACLPVAHLPEQAANFKWSAPLLQMRLVLLARGDDGRQLRSLEQAGGLRVGAMRGTMAAARLKERGVAVEESADYLSGLEKLRLGRLDLWAMLDVGVASLARRLEMPPPRVAWVMDTLDVSFACNRQVDDALIARLDGAIAAMRADGSMARFDLR”, the protein production was “failed”.
